For the series, the system named is c-Myc (pM21 expression), P01106-1. Put plainly: cell_activity. As to conditions: luciferase, NIH 3T3, SV40 minimal promoter.
Sequence of c-Myc (pM21 expression), P01106-1 (P01106 16-454): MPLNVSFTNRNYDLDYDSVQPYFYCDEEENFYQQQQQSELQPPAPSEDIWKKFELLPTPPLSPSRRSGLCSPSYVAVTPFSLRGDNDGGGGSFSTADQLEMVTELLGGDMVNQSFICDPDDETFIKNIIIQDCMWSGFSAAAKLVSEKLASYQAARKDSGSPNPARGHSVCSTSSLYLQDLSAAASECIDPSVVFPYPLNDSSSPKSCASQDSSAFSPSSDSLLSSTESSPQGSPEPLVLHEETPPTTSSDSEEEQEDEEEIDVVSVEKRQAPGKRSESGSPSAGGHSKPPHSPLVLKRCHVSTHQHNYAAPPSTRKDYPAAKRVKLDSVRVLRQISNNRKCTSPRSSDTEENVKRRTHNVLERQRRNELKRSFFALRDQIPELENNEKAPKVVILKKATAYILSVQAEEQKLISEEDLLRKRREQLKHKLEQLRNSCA

The substance “cdc25A 2.5 kb KpnI/HindIII fragment (MB2+MB3) luciferase reporter” yielded an activity of 5 fold.

The values above are taken from patent US20010044102.
